Measured values reported in a protein production outcome set (Wang et al. 2014).

Test: label from the status in PepcDB records
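Note: failed if final PepcDB status was selected cloned or expressed and not failed if soluble or beyond.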

Row | Sequence | protein production
1 | MHEDRKRRRGKLRTAVHFKAPRRARFSRFPLFPRLNPMPAAPTDAHAALPIALRDLIRLHAPQATLLAAIGQRILNIQAEGAPTEEAQLVPPDDWLEHGDLAWITRDGALLGLLWSDGAPVPDGAVQVLTLLLSAASAEGASREADMLITQLPAATAWLSAELEFRQVSRTFLELFGLTGADVLGRTVHEVFPDHAALAQQLDSAAAGRAVQLGDERVPSLPGHSGERWLRGSARPYFGGAAAGVLWTVQDVSTEHTQTTQFAALLGTDLPLALLGPGGAVQGASRGMRQLLGEPEDLAEAQAHPQRPLHEWPCWAPAGARLLQDLIQSAEAGRPSPVPSEIALARGGQLPLLVRRSDTVPGLLLAEGVRPAAVSEDNGAARLLHLSGAATILLDPQGRVQLISEPAARLLGFDPHNIALTGLPLPRLHQQLGIKLHTPQGNPLTVPPLSALTLPHNGEVLAVLPGGVTRHLEISLSALPGSGQSTGSSAASPGRSAAPELLLSLRDVTTLRRAQAKLRHDASHDGLTGLLNRSGLRAALGQATAAQTGGMVACLDIDGFGGLNAALSRTAGDLLLIQVAARLNDLAELEGGQAARLADDTFAVYLPQLGAAVGGQKLQAALREPLRTGKRLVPVTFSLGAAPLLAAAPEQALADAEVALQHARRQGRGQLTVFEPDMRAEEAQTFELEDQLRAVLDRGLQHEQFSLLYQPAVSLKDGRVLGAEALLRWTHPELGNVSPARFLPLAQRSDLITSIGEWVVREAVQGRTQLRDATGQRNWRTSVNLSLEELRREGAIERLLPLITRPSALDIEVSASSLLDHSEETLGLLDALRARGARLIVDDFGDGASSLTALTQFPLYGVKLHPTLTTRLPGDQKSLKLVQGTVSLAHSLGLTVTAVGVETYAQLDMLRDLGCDAAQGYALTPPLSAGDLVTWVQGR | failed
2 | MNRLLELSNEIFRIKTDDYTFPLFSSLHFKIILCVVITIFIAIIFKEKIKKWKYRRTFEVTTALILLSTQIFLAIWYSRFPNFYLKESLPLYPCRIAIIMAAIGLIWKKNDFAKSIAYFWGTIGAIGALMIPITNSYIFPHITYYTFFIGHYFLLIASLYLILIEEFKVKSKNVKQALIFSFIFAICAFIANYLFDANYAFLNPPNGYEILNIINVESNIITTSIFAYFIFVLGIFIMYLPFNMSDYKKDSLFECSLIKY | failed
3 | MINMYIPQFNPRIRKDQKSGLFFFEIRDNEGKTVSYQSGFNTKREAENTALEIQQKLRQGYTLDRYTSLYDWFQTWYDLKIRPKKKLSQETKKNYQIYGETLKRLFGDKPIIDIKSSQYQRIMNVYGETVGYDYLSRINSVIRKIIKLAQSDKIVIDDFTSTVELFAGKDGQKVNEKYIHSVEDYHRLISYLENNLNYEDSVVNHVIYVIAKTGMRYGEIIGLTNNDTSLDEHYLHTYKRYNTSTWKWTNAKNESSKRYIPIDDKIVAALSNMIKERERINSLLRIKNKEEFLFFHYGLEHGIPSVATVNKALKKILKKLDIEPIITTKGLRHTYGSYLLHNNIDMGVVARILGHKDIQMLIQVYGHTLTEKIDKEFKEVEQIMNRI | failed
4 | MGLIARLRRWYHLWVWRLRYWWYDTPSGVCAQHWAQGLGVLVFIVQLVRVWVAAALPAPHGAPAQAVYWWVWQLAIAVVAAYVSAALRPKPESVKPQQAQVPTVQDGQAVKHHFGTVWVGDEFILAWKMQGAIPIKTKGAGC | failed
5 | MKVKDVCKLISLKPTVVEEDTPIEEIVDRILEDPVTRTVYVARDNKLVGMIPVMHLLKVSGFHFFGFIPKEELIRSSMKRLIAKNASEIMLDPVYVHMDTPLEEALKLMIDNNIQEMPVVDEKGEIVGDLNSLEILLALWKGREK | not failed
6 | MLYNSYMLLTYQFKLNPTSEQVVILETWGELLRRHWNYALGERLDWLRRTRSLLDRCSLVSEPIGGIPDKPDYYTQASDLQQTKDLFPDYKNIYADCQQQNLMRLDKAWKRWLIPDKKGNRGGKPRFKKRGDISSFTFPRVNSPKAGAHLTGNILKLSKIGEIEVILHRPIPNGSEIKQATILSKSDGWYVSFSLEDKTVPELLPIDEIKTATGIDVGLEKFLTTAHGQSIEVPQYSRKTQSKLARQQRKLARKIHGSKNYQKQASRVARIHLHVARQRKEFHYQVAHWLVKSYDLIVFENLNIRGLARTRLAKSILDVAWGAFLQIMQAVAVRRGKHTRGVDPRGTSINCSGCGQRVEKTLAVRVHNCSCGLVIDRDWNSAINLLNYGSVGLPIPGCGGLGVSQPVKQQVSYVNLRCSRYTACS | failed
7 | MILSNYFKFLSHQLKGWPQQNYYLFYFSLGCQVMTLVSAPITALSILTFIGTTLGVLCVLAINAAKSVNGLLGVISAACFIVVGFSAKNYLSIGEQLAYVVTLDIPVLLSANWNVNMVSKIRKFTGKTWIVAIVATLVVYAISGYLIGALTDDPRPWVDAISFAICLTAGVICFLRYNNQYFWWIASGLAQMVLWFISFRQGSATLAMFINSSVYLMNDVLAFTVSPWYNKHERARLMAEEQAASDAASADASDNQAFGLNH | failed
8 | MSTPAPEQMLSAWQVGIAALLILVNGALSIGLGLGLERRLAWAAVRTVVQLLLIGFVLQWVFASAHWAVVLAVIALMTLIAGHATGSRGARDYAGLRLDGTLSVFGSTWLIGAIGLVAVLQARPWYTPQYAIPIMGMILGNTLTGVGLALERMTGELIATRDQVETLLALGGTRWEAARNAARAAVRAGMTPIINQMSVVGVVSLPGMMTGQVLAGQSPLEAVRYQIVIMFLLAASSGLGTVAAVLLAYRRLFSREHQLLSARIVQRAPGVH | failed
9 | MVKHHHLYELSPMVTGWTICVMVLRIYKKFLNLNAFELRLVLADEWGTQIEATIGPRFSAFYFDRIKENQWKTITTFLVRPNCEAIKTTPHQFRILFMDHTIVTSSTPRETGLLNKFTPFDYIVDDVVGNDTLVDLIGALVNVGILTNTASNENDMAGFKLPFTIMDKNKDTLVCEAYGEIAVDLEKRFRAFRKNNVVIALAWWKILRFYPVAAIPEVYLLAPMLAKIVSYVAESGVDSLKSFVKAGLLFKAAVYSKETLSCVRLDRSWYFMLAFHMCELQEAIAILDGIKDVFPHAGLLYIMLHSCAGSIPWEFYRMYKRRYYKFSEVDLFADKLMFHINEVGPRRQGTYKNS | failed
10 | MIQLVIRLGLLALLIFWTLYLIRPFVTILVWALVLAVAFNPIFLVLAKILGGRAKLAAGLLTAINLAIVIGPAAWLGLGAVDGIRDFAGELAAGDLVIPSPPAAIKTWPLIGTPLYEFWDQASTNLRSVVQRIAPYLKPFAGTLLGIAGDAGVGTIKFLLSVVVAGCLFPYGPQLVAAGRSFLSRIVPEQSEHFLDLAGATIRAVAQGVIGIAVVQALLAGIGFKLAGIPIAGLLALLVLLLSIVQIGGAIIMLPVMIWIWTDKDVTVAVLLTLFLGIVSILDNILKPLVMGRGLTTPALVILIGVIGGTLGHGIVGLFIGPIVLSVAWELTVAWIRTDRASAASQATIDR | failed
11 | MLIRAIPFVFVILWASGFVGARFGLQYAEPATLLSIRMAFNVLLFLVLVAVLRRRLPTGTDFWHSCVVGALIHGFYLGGTYFAIALGMPAGLSSLLVGIQPILTAALLVAFVREEFKPSQWLGLALGFVGIAMVLMGKMEWQSEQHKVLAIGLCLLALVGITLGTLYQKKHCQQVDMVGGATVQYLAALIMFLPVAMQFETMQVQWELEFILTVLWLVVVLSCVAILLLLYMVRNGASSSVASVFYLVPPTTAIQAWLAFGESFDWMGISGFVLAATAVYLVVKKPDLTIKKAIKTEYT | failed
12 | MVSRTGRTHLPLVDSLKEKLPYILCGLLALAGVLLVWSLGSTFLPVLLALILAYVLNPLVTWLEARRVPRVAAVLLVMALIVVVTAGAVTFFAVSIQKEVARVEINLPAYATRLYDLIPGQAKAYLEIETPDKLYARIDSLVDELRGASFDLVKGALGVVQRAFSSTLGFLLTVAGYFITPVYLYYFLADLPRLRDGIMALVPGRARDRAAMLGSEIDGVLSGFVRGQLAVCAILAVLYSIGLVMIGIDLAIVIGSLSGFLFIIPYVGTVFGIVVSMIMAFLKFHDMLHPLLCLGWFAIVQAIEGALITPAVVGNTVGLHPVVAILALFIGGQWFGIFGMLLAVPVAAVIKVLLRHGVEWYRATPFFERP | failed
13 | MDWAQLLPSMKTRTGVATSPPPARSFYCHPSARKNPLHLHLITDAVARNILETLFRTWMVPAVVVSFYDAEELKPLVSWIPNNHYSGLYGLMKLVLPSILPPSLARVIVLDTDVTFSSDIVELWALFDHFSDKQVVGLVENQSDWYLGNLWKNHRPWPALGRGFNTGVILLWLDRLQQTGWEQMWKVTAKRELLTLMATSLADQDIFNAVIKEHPHLVHPLPCVWNVQLSDHTRAERCYLEAADLKVIHWNSPKKLRVKNKHAEFFRNLHLTFLGYDGKLLRRELFGCPNQFPPGAEQLQQALTQLDEEEPCFEFRQQQLTVHRVHITFLPHQPPPPQPHDVTLVAQLSMDRLQMLEALCRHWPGPMSLALYLTDEEAQQFLHFVETSPVLSMRKDVAYHVVYRDGPLYPVNQLRNVALAQALTPYVFLSDIDFLPAYSLYDYLRASIEQLELDSRRKTALVVPAFETLHYRFSFPNSKAELLTLLDAGSLHTFRYHEWPQGHSSTDYSRWREAQAPYSVQWSADYEPYVVVPRDCPRYDPRFVGFGWNKVAHIIELDAQEYEFLVLPEAFSIHLPHAPSLDISRFRSSPTYRNCLQALKEEFHQDLSRRYGSAALKYLTALQQARSRA | failed
14 | MKQLNDGDFIKIEFEMRVGEEKKLVSTSKADLAKENDIFDENARYGDIVVIVGQEGIFKEVNEAFRKAEPGQEVEVEVPPEDAFGQRLPSNIKIHTMREFQRLEHHHHHH | not failed
15 | MKNFWKKYHKWVGLFFSFFILMFCFSGIVLNHRTLFSKAEVSRNWMPESYHYKNWNNGIIKGTLRLPDGKILAYGNAGVWKTDSCFATFADFNRGLAEGIDNRKISNIVRVANNDIWCAGLYSIYLLNHDSWKEYPIAGNDERISDITQRGDTLVILTRSYLYTSVSPYDEFRKTELKTPENYSPKTSLFRTIWLLHSGELFGTPGKLAVDFLGVVLIVLSATGIIYTLLPPFIRRRHRKRLPVKTQAKALKTSLNWHNKLGTWLIGLTLLLSVTGMCLRPPLMIPFVLVNTRPVPGSTLDSDNPWHDKLRSIRWDASRNVWLLSSSMGFYRINDLQLPPVKLKQTPPVSPMGVNVFHPQSPDEWLIGSFSGLFVWNPSTGTVLDYYTGQPPAAVHGRPLGGSLVNGFTDDLVTREVIFEYDNGARNKENNLVLPAMPDLIKQQPMSLWNFCLELHVGRCYSPFLGVFSDLFVFISGLLLTLILISGYIVYKRHHKRSKKIRMH | failed
16 | MMSYDAETGIAKVKCQSQSTCGACSARETCGTESLSELNGKRGEHIFTLETITPLRTDQMVEIGLEEKSMLFSALLMYIVQLFTLLVATLLSSYISENELIRAILIFMLTALSFVMVKRYTRKLGQQTEFQSVLLRVLF | failed
17 | MKGSLIVIVFFCVGCIMGVFNKFQFDTHTVSMYILYALMLQVGISIGSNKNLKAIISHLHPKMLLIPLGTITGTLLFSALASILLSQWSVFDCMAVGSGFAYYSLSSILITQFKEPTIGIQLATELGTIALLTNIFREMMALLGTPLIKKYFGKLAPISAAGVNSMDVLLPSISRYSGKEMIPIAILHGILIDISVPVFVSFFCNL | failed
18 | MANKTKSKSLLEKMWRIKWWLLSIFTVLFLLFALFFPLNNYYVELPGGAFDTKEVLTVNKKADDSKGSYNFVAVAQTKATLALMLYTQFNDFAKLQTAEEATGNYSDEDFMRINQFYMETSQNQAVYQGLTLAGKEVSLEYMGVYVLQVADDSSFKGVLNIADTVTAVNGKTFDNSTDMIKYVQGLKLGSKVKVTYMRDGKEKTATGKIIKIANGKNGIGIGLTDHTEIKSPENVKFKLDGVGGPSAGLMFTLAIYDQVSGQDLKAGRKIAGTGTIEKDGAVGDIGGAYLKVKSAADSGADIFFVPNNLVTKEMKKADPDAKTNYQEAKEAAEKLGTKMKIVPVKTAQEAIDYLKKTK | failed
19 | GIATSDNFMQAFLNVLDQCPKLEVDIPLVKSYLAQFAARAIISELVSISELAQPLESGTHFP | failed
